The target of the experiment is T1, Flag-PAPα (canonical poly(A) polymerase) (Homo sapiens (Human), UniProt P51003 1-745, limits assumed).
T1 construct: not shown: FLAG tag
As to the kind of experiment: FLAG affinity purification from HEK 293 cells, immunoblot with a CKIα specific antibody. On the procedure:
(A) FLAG purified Star-PAP and PAPα complexes were separated by SDS-PAGE, transferred to nitrocellulose and probed with anti-FLAG and -CKIα antibodies. (B) Endogeneous Star-PAP was immunoprecipitated from HEK 293 cells. The resulting precipitates were immunoblotted with Star-PAP and CKIα specific antibodies. A non-specific IgG immunoprecipitation was used as a control. (C) Purified FLAG-Star-PAP complex was incubated with 0, 0.1, 1.0, or 100 μM IC261 (IC₅₀ 11 μM). (D) Purified FLAG-Star-PAP complex was incubated with […] (IC₅₀˜6.0 μM) prior to initiation of the kinase reaction by ATP. Arrow indicates Star-PAP protein.
Casein Kinase Iα (CKIα), is a protein kinase found in nuclear speckles; moreover, CKIα activity is inhibited by PI4,5P₂. […] FLAG proteins were expressed and purified as follows. Human Star-PAP and rat CKIα cDNAs were cloned in to the pFLAG-1 mammalian expression vector (Sigma). For each FLAG purification, four 10 cm dishes each containing ˜5×10^6 HEK 293 cells were transfected with 10 μg DNA and allowed to express for 48 hours. FLAG purifications were performed according to the manufacturer's directions.

T1 sequence (P51003 whole entry): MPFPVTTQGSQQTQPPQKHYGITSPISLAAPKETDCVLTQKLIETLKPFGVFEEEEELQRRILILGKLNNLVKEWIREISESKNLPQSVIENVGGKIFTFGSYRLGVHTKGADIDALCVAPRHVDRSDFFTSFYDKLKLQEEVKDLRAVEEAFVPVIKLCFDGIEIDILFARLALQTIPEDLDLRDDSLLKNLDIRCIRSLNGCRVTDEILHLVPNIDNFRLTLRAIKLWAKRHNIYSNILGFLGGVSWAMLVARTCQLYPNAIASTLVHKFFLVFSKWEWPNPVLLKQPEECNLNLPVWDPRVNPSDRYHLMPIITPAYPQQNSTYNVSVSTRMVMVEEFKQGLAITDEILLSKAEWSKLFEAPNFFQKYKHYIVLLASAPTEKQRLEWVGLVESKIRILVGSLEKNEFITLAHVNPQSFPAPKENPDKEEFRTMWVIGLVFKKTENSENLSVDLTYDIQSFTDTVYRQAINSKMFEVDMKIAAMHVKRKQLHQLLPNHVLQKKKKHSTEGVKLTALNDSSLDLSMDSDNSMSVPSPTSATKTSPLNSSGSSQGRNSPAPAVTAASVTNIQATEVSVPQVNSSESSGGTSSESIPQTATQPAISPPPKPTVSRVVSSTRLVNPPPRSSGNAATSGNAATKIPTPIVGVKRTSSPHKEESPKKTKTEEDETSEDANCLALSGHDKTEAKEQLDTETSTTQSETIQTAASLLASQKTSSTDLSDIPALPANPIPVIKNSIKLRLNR

B1: Casein Kinase Iα (CKIα), endogenous (enzyme, human, UniProt P48729 2-337, looked up)
chain: ASSSGSKAEFIVGGKYKLVRKIGSGSFGDIYLAINITNGEEVAVKLESQKARHPQLLYESKLYKILQGGVGIPHIRWYGQEKDYNVLVMDLLGPSLEDLFNFCSRRFTMKTVLMLADQMISRIEYVHTKNFIHRDIKPDNFLMGIGRHCNKLFLIDFGLAKKYRDNRTRQHIPYREDKNLTGTARYASINAHLGIEQSRRDDMESLGYVLMYFNRTSLPWQGLKAATKKQKYEKISEKKMSTPVEVLCKGFPAEFAMYLNYCRGLRFEEAPDYMYLRQLFRILFRTLNHQYDYTFDWTMLKQKAAQQAASSSGQGQQAQTPTGKQTDKTKSNMKGF
notes: Detected with a CKIα specific antibody; also called CIKIα
For the molecule B1, the binding result is “no binding”.
